{"source": "patent US20030165934", "proteins": {"B1": {"name": "ATR-ATRIP complex reconstituted in vitro from purified ATR and purified ATRIP (protein)", "chain 1": "not shown", "chain 2": "MAGTSAPGSKRRSEPPAPRPGPPPGTGHPPSKRARGFSAAAAPDPDDPFGAHGDFTADDLEELDTLASQALSQCPAAARDVSSDHKVHRLLDGMSKNPSGKNRETVPIKDNFELEVLQAQYKELKEKMKVMEEEVLIKNGEIKILRDSLHQTESVLEEQRRSHFLLEQEKTQALSDKEKEFSKKLQSLQSELQFKDAEMNELRTKLQTSERANKLAAPSVSHVSPRKNPSVVIKPEACSPQFGKTSFPTKESFSANMSLPHPCQTESGYKPLVGREDSKPHSLRGDSIKQEEAQKSFVDSWRQRSNTQGSILINLLLKQPLIPGSSLSLCHLLSSSSESPAGTPLQPPGFGSTLAGMSGLRTTGSYDGSFSLSALREAQNLAFTGLNLVARNECSRDGDPAEGGRRAFPLCQLPGAVHFLPLVQFFIGLHCQALQDLAAAKRSGAPGDSPTHSSCVSSGVETNPEDSVCILEGFSVTALSILQHLVCHSGAVVSLLLSGVGADSAAGEGNRSLVHRLSDGDMTSALRGVADDQGQHPLLKMLLHLLAFSSAATGHLQASVLTQCLKVLVKLAENTSCDFLPRFQCVFQVLPKCLSPETPLPSVLLAVELLSLLADHDQLAPQLCSHSEGCLLLLLYMYITSRPDRVALETQWLQLEQEVVWLLAKLGVQSPLPPVTGSNCQCNVEVVRALTVMLHRQWLTVRRAGGPPRTDQQRRTVRCLRDTVLLLHGLSQKDKLFMMHCVEVLHQFDQVMPGVSMLIRGLPDVTDCEEAALDDLCAAETDVEDPEVECG"}}, "biological_target": "T1, recombinant human Rad17 protein tagged with a Flag epitope at its N terminus, purified from baculovirus infected insect cells", "T1 chain": "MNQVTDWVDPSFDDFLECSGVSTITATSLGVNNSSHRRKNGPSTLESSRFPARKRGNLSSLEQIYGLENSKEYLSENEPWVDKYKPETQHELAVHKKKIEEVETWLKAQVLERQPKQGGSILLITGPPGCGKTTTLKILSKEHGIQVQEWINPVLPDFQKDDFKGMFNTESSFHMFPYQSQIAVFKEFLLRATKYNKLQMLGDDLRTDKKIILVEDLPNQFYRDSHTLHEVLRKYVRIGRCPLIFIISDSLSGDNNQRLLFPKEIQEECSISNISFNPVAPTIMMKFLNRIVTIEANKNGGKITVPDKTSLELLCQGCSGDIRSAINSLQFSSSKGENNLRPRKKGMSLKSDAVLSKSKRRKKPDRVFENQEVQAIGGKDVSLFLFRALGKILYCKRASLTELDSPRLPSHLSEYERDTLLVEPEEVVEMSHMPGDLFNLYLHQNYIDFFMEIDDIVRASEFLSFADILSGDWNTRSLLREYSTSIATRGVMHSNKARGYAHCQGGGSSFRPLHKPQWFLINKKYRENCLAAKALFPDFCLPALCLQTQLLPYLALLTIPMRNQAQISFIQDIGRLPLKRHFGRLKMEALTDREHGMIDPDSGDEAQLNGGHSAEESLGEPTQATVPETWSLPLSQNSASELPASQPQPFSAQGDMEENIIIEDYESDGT"}
{"protein": "B1", "values": [{"measurement": "phosphorylated Rad17 on DNA (Ser635P)", "value": "human replication protein A (RPA) stimulates the phosphorylation of Rad17 by the ATR-ATRIP complex"}]}
